Measured values from publication PMC4300558 (Cell Communication and Signaling : CCS, 2015).
Where two headings read alike, the source gives them in different places. Blank lines part the entries; values can stand above or below the molecule they belong to.

Experiments:
[1] = target: prolactin receptor (Homo sapiens) (UniProt P16471); settings: cited from earlier work
[2] = target: prolactin receptor (Homo sapiens) (UniProt P16471); settings: cited from earlier work; remark: listed apart in the source
[3] = target: T1, extracellular domain of the human prolactin receptor (human, UniProt P16471 25-234, biotin (site not stated; in the phage ELISA)); experiment: ELISA; competition with phage-displayed sAB A8
T1 chain: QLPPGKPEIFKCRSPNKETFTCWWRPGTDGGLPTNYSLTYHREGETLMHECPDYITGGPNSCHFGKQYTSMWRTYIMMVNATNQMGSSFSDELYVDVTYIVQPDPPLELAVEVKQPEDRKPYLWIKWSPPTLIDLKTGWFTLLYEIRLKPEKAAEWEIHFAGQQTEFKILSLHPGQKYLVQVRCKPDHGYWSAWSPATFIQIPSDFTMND

[4] = target: T1, extracellular domain of the human …; experiment: ELISA; competition with phage-displayed sAB A10
[5] = target: T1, extracellular domain of the human …; experiment: ELISA; competition with phage-displayed sAB A9
[6] = target: T2, extracellular domain of the human prolactin receptor (human, UniProt P16471 25-234, biotin (site not stated; in the phage ELISA)); experiment: ELISA; competition phage ELISA; biotinylated receptor immobilised on streptavidin plates; hGH or PRL titrated against phage-displayed sAB; settings: both partners purified
T2 construct: prolactin receptor, human, extracellular domain (two tandem fibronectin domains FN1 and FN2); No methods in the main text; also called hPRL-R; hPRL-R ECD
T2 sequence (looked up): T1 chain

[7] = target: T3, extracellular domain of the human prolactin receptor (human, UniProt P16471, biotin (site not stated; in the phage ELISA)); experiment: SPR; Biacore 2000; dissociation constant calculated from the on and off rates; settings: both partners purified
T3 construct: prolactin receptor, human, extracellular domain (two tandem fibronectin domains FN1 and FN2); No methods in the main text; also called hPRL-R; hPRL-R ECD

Molecule: growth hormone (from UniProt P01241)
- Kd [1]: 1 nM

Molecule: prolactin (from UniProt P01236)
- Kd [2]: 6 nM

- IC50 [3]: 11 nM
- IC50 [4]: 9 nM
- IC50 [5]: 13 nM
- binding result [6]: binds
B1: human prolactin (ligand, UniProt P01236 29-227, looked up)
chain: LPICPGGAARCQVTLRDLFDRAVVLSHYIHNLSSEMFSEFDKRYTHGRGFITKAINSCHTSSLATPEDKEQAQQMNQKDFLSLIVSILRSWNEPLYHLVTEVRGMQEAPEAILSKAVEIEEQTKRLLEGMELIVSQVHPETKENEIYPVWSGLPSLQMADEESRLSAYYNLLHCLRRDSHKIDNYLKLLKCRIIHNNNC
notes: prolactin, human; Labelled with cy5 in the internalization experiment; also called hPRL; PRL

- Kd [7]: 5.6 nM
- koff [7]: 0.00054 s⁻¹
- kon [7]: 96000 M⁻¹ s⁻¹
B2: synthetic antibody (sAB) A8 (Fab, V domains shown)
VH: EVQLVESGGGLVQPGGSLRLSCAASGFNFSSSSMHWVRQAPGQGLEWVAYISPYYGSTSYADSVKGRFTISADTSKNTAYLQMNSLRAEDTAVYYCARSYGYVYWNAYSSGMDYWGQGTLVTVSS
VL: DIQMTQSPSSLSASVGDRVTITCRASQSVSSAVAWYQQKPGKAPKLLIYSASSLYSGVPSRFSGSRSGTDFTLTISSLQPEDFATYYCQQYYSYYYPFTFGQGTKVEIK
notes: Fab scaffold before loop H1; heavy chain loop 1 (H1), randomized loop; Fab scaffold between H1 and H2; heavy chain loop 2 (H2), randomized loop; Fab scaffold between H2 and H3; heavy chain loop 3 (H3), randomized loop; Fab scaffold after H3 (rest of VH and CH1); Fab scaffold before loop L3; light chain loop 3 (L3), randomized loop; Fab scaffold after L3 (rest of VL and CL); Only the four …
